Measured values from patent US20220402985A1.
Changes are numbered by the printed parent chain. In names and notes the source's numbering stands. Several values for one entry are separate records, joined by “and”; a condition that tells them apart may be missing. Equal values may be shown once.

B1: huNRG1(S177-Q237)(NRGE1A)::GG::huFcSEFL2 (Pb) (Fc fusion)
chain: SHLVKCAENDKSFCVNGGECFMIEGPSNPSRYLCKCPNEFTGDRCQEDFMASFYKAEELYQGGDKTHTCPPCPAPELLGGPSVFLFPPKPKDTLMISRTPEVTCVVVDVSHEDPEVKFNWYVDGVEVHNAKTKPCEEQYGSTYRCVSVLTVLHQDWLNGKEYKCKVSNKALPAPIEKTISKAKGQPREPQVYTLPPSREEMTKNQVSLTCLVKGFYPSDIAVEWESNGQPENNYKTTPPVLDSDGSFFLYSKLTVDKSRWQQGNVFSCSVMHEALHNHYTQKSLSLSPGK
B2: huNRG1(S177-Q237)(NRGE1D)::GG::huFcSEFL2 (Pb) (Fc fusion)
chain: B1 chain with A7G, N9S, D10H, F21Y, I23V, P26S, N28I
B3: huNRG1(S177-Q237)(NRGE1C)::GG::huFcSEFL2 (Pb) (Fc fusion)
chain: B1 chain with A7G, N9K, D10H
B4: huNRG1(S177-Q237)(NRGE1J)::GG::huFcSEFL2 (Pb) (Fc fusion)
chain: B1 chain with A7G, F21Y, I23V, P26S, N28I, E47D
B5: huNRG1(S177-Q237)(NRGE1K)::GG::huFcSEFL2 (Pb) (Fc fusion)
chain: B1 chain with N9K, D10H, E47D
B6: huNRG1(S177-Q237)(NRGE1B)::GG::huFcSEFL2 (Pb) (Fc fusion)
chain: B1 chain with A7G, F21Y, I23V, P26S, N28I
B7: huNRG1(S177-Q237)(NRGE1M)::GG::huFcSEFL2 (Pb) (Fc fusion)
chain: B1 chain with A7G, E47D, D48F
B8: huNRG1(S177-Q237)(NRGE1L)::GG::huFcSEFL2 (Pb) (Fc fusion)
chain: B1 chain with A7G, N9S, D10H, F21Y, I23V, P26S, N28I, E47D
B9: huNRG1(S177-Q237)(NRGE1I)::GG::huFcSEFL2 (Pb) (Fc fusion)
chain: B1 chain with A7G, E47D
B10: huNRG1(S177-Q237)(NRGE1F)::GG::huFcSEFL2 (Pb) (Fc fusion)
chain: B1 chain with F21Y, I23V, P26S, N28I, E47N
B11: huNRG1(S177-Q237)(NRGE1H)::GG::huFcSEFL2 (Pb) (Fc fusion)
chain: B1 chain with A7G, N9S, D10H, E47N
B12: huNRG1(S177-Q237)(NRGE1O)::GG::huFcSEFL2 (Pb) (Fc fusion)
chain: B1 chain with A7G, N9K, D10H, F21Y, I23V, P26S, N28I, E47D, D48F
B13: huNRG1(S177-Q237)(NRGE1N)::GG::huFcSEFL2 (Pb) (Fc fusion)
chain: B1 chain with A7G, F21Y, I23V, P26S, N28I, E47D, D48F
B14: huNRG1(S177-Q237)(NRGE1G)::GG::huFcSEFL2 (Pb) (Fc fusion)
chain: B1 chain with A7G, N9K, D10H, F21Y, I23V, P26S, N28I, E47N
B15: huNRG1(S177-Q237)(NRGE1E)::GG::huFcSEFL2 (Pb) (Fc fusion)
chain: B1 chain with A7G, E47N
B16: :huNRG1(S177-F229)(NRGE1C)::2X(G4A)G4::huFcSEFL2v131(+) (Fc fusion)
chain: SHLVKCGEKHKSFCVNGGECFMIEGPSNPSRYLCKCPNEFTGDRCQEDFMASFGGGGAGGGGAGGGGDKTHTCPPCPAPELLGGPSVFLFPPKPKDTLMISRTPEVTCVVVDVSHEDPEVKFNWYVDGVEVHNAKTKPCEEQYGSTYRCVSVLTVLHQDWLNGKEYKCKVSNKALPAPIEKTISKAKGQPREPQVYTLPPSREKMTKNQVSLTCLVKGFYPSDIAVEWESNGQPENNYKTTPPVLKSDGSFFLYSKLTVDKSRWQQGNVFSCSVMHEALHNHYTQKSLSLSPGKDKTHTCPPCPAPELLGGPSVFLFPPKPKDTLMISRTPEVTCVVVDVSHEDPEVKFNWYVDGVEVHNAKTKPCEEQYGSTYRCVSVLTVLHQDWLNGKEYKCKVSNKALPAPIEKTISKAKGQPREPQVYTLPPSREEMTENQVSLTCLVEGFYPSDIAVEWESNGQPENNYETTPPVLDSDGSFFLYSDLTVDKSRWQQGNVFSCSVMHEALHNHYTQKSLSLSPGK
B17: :huNRG1(S177-F229)(NRGE1D)::2X(G4A)G4::huFcSEFL2v131(+) (Fc fusion)
chain: B16 chain with K9S, F21Y, I23V, P26S, N28I
B18: :huNRG1(S177-F229)(NRGE1C)::2X(G4E)G4::huFcSEFL2v131(+) (Fc fusion)
chain: B16 chain with A58E, A63E
B19: :huNRG1(S177-F229)(NRGE1D)::2X(G4E)G4::huFcSEFL2v131(+) (Fc fusion)
chain: B16 chain with K9S, F21Y, I23V, P26S, N28I, A58E, A63E
B20: :huFcSEFL2(desK)vl31(+):G4SG4:huNRG1(S177-F229)(NRGE1C) (Fc fusion)
chain: DKTHTCPPCPAPELLGGPSVFLFPPKPKDTLMISRTPEVTCVVVDVSHEDPEVKFNWYVDGVEVHNAKTKPCEEQYGSTYRCVSVLTVLHQDWLNGKEYKCKVSNKALPAPIEKTISKAKGQPREPQVYTLPPSREKMTKNQVSLTCLVKGFYPSDIAVEWESNGQPENNYKTTPPVLKSDGSFFLYSKLTVDKSRWQQGNVFSCSVMHEALHNHYTQKSLSLSPGGGGGSGGGGSHLVKCGEKHKSFCVNGGECFMIEGPSNPSRYLCKCPNEFTGDRCQEDFMASFDKTHTCPPCPAPELLGGPSVFLFPPKPKDTLMISRTPEVTCVVVDVSHEDPEVKFNWYVDGVEVHNAKTKPCEEQYGSTYRCVSVLTVLHQDWLNGKEYKCKVSNKALPAPIEKTISKAKGQPREPQVYTLPPSREEMTENQVSLTCLVEGFYPSDIAVEWESNGQPENNYETTPPVLDSDGSFFLYSDLTVDKSRWQQGNVFSCSVMHEALHNHYTQKSLSLSPGK
B21: :huFcSEFL2(desK)vl31(+):G4SG4:huNRG1(S177-F229)(NRGE1D) (Fc fusion)
chain: B20 chain with K244S, F256Y, I258V, P261S, N263I
B22: huNRG1(S177-Q237)(1D4)::GG::huFcSEFL2 (Pb) (Fc fusion)
chain: SHLVKCGERDKTFCVNGGECYVVEHSSNPSRYLCKCPNEFTGDRCQKFFLASFYKAEELYQGGDKTHTCPPCPAPELLGGPSVFLFPPKPKDTLMISRTPEVTCVVVDVSHEDPEVKFNWYVDGVEVHNAKTKPCEEQYGSTYRCVSVLTVLHQDWLNGKEYKCKVSNKALPAPIEKTISKAKGQPREPQVYTLPPSREEMTKNQVSLTCLVKGFYPSDIAVEWESNGQPENNYKTTPPVLDSDGSFFLYSKLTVDKSRWQQGNVFSCSVMHEALHNHYTQKSLSLSPGK
B23: :huFcSEFL2(desK)vl31(+):G4SG4:huNRG1(S177-Q237)(NRGE1C) (Fc fusion)
chain: DKTHTCPPCPAPELLGGPSVFLFPPKPKDTLMISRTPEVTCVVVDVSHEDPEVKFNWYVDGVEVHNAKTKPCEEQYGSTYRCVSVLTVLHQDWLNGKEYKCKVSNKALPAPIEKTISKAKGQPREPQVYTLPPSREKMTKNQVSLTCLVKGFYPSDIAVEWESNGQPENNYKTTPPVLKSDGSFFLYSKLTVDKSRWQQGNVFSCSVMHEALHNHYTQKSLSLSPGGGGGSGGGGSHLVKCGEKHKSFCVNGGECFMIEGPSNPSRYLCKCPNEFTGDRCQEDFMASFYKAEELYQDKTHTCPPCPAPELLGGPSVFLFPPKPKDTLMISRTPEVTCVVVDVSHEDPEVKFNWYVDGVEVHNAKTKPCEEQYGSTYRCVSVLTVLHQDWLNGKEYKCKVSNKALPAPIEKTISKAKGQPREPQVYTLPPSREEMTENQVSLTCLVEGFYPSDIAVEWESNGQPENNYETTPPVLDSDGSFFLYSDLTVDKSRWQQGNVFSCSVMHEALHNHYTQKSLSLSPGK
B24: :huFcSEFL2(desK)vl31(+):G4SG4:huNRG1(S177-Q237)(NRGE1D) (Fc fusion)
chain: B23 chain with K244S, F256Y, I258V, P261S, N263I

Tests used:
[1] = biological target: ErbB3 on rat Schwann cells (rat) (UniProt Q62799); assay: cell-based or functional assay
[2] = biological target: ErbB4 on neonatal rat cardiomyocytes (rat) (UniProt Q62956); assay: cell-based or functional assay
Chain of ErbB4 on neonatal rat cardiomyocytes (rat) (Q62956 26-1308): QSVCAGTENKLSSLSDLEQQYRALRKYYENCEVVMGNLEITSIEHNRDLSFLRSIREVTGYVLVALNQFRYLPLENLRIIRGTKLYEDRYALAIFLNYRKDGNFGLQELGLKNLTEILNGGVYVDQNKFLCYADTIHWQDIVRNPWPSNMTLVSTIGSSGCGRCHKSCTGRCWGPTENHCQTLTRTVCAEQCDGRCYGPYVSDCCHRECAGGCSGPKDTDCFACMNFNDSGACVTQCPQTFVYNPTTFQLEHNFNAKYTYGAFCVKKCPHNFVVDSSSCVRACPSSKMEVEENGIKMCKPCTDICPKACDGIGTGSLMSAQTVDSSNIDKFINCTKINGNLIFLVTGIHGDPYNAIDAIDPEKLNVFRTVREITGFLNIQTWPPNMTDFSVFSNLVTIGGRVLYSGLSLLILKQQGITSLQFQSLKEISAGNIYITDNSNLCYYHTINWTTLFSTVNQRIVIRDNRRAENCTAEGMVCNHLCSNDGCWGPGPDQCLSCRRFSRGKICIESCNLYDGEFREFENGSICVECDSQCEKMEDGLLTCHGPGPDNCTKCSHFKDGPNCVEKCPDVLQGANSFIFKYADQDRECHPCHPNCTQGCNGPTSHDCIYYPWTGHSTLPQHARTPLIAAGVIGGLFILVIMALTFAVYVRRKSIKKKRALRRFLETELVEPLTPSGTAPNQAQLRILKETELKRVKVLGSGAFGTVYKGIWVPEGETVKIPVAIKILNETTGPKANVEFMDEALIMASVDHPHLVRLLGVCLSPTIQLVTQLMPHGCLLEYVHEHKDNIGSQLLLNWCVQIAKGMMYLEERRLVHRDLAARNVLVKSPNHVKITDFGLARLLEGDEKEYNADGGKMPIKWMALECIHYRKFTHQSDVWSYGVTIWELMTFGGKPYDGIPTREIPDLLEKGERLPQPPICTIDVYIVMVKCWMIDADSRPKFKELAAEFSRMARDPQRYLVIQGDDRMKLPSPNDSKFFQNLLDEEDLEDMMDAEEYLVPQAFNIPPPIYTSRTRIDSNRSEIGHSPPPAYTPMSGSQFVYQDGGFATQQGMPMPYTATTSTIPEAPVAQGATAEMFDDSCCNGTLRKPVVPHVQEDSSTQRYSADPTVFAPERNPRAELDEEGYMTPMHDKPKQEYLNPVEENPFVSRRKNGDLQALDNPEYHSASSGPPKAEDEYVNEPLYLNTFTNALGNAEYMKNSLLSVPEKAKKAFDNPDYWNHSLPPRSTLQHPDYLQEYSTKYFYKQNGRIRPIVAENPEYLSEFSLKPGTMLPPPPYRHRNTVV

Chain of ErbB3 on rat Schwann cells (rat) (Q62799 20-1339): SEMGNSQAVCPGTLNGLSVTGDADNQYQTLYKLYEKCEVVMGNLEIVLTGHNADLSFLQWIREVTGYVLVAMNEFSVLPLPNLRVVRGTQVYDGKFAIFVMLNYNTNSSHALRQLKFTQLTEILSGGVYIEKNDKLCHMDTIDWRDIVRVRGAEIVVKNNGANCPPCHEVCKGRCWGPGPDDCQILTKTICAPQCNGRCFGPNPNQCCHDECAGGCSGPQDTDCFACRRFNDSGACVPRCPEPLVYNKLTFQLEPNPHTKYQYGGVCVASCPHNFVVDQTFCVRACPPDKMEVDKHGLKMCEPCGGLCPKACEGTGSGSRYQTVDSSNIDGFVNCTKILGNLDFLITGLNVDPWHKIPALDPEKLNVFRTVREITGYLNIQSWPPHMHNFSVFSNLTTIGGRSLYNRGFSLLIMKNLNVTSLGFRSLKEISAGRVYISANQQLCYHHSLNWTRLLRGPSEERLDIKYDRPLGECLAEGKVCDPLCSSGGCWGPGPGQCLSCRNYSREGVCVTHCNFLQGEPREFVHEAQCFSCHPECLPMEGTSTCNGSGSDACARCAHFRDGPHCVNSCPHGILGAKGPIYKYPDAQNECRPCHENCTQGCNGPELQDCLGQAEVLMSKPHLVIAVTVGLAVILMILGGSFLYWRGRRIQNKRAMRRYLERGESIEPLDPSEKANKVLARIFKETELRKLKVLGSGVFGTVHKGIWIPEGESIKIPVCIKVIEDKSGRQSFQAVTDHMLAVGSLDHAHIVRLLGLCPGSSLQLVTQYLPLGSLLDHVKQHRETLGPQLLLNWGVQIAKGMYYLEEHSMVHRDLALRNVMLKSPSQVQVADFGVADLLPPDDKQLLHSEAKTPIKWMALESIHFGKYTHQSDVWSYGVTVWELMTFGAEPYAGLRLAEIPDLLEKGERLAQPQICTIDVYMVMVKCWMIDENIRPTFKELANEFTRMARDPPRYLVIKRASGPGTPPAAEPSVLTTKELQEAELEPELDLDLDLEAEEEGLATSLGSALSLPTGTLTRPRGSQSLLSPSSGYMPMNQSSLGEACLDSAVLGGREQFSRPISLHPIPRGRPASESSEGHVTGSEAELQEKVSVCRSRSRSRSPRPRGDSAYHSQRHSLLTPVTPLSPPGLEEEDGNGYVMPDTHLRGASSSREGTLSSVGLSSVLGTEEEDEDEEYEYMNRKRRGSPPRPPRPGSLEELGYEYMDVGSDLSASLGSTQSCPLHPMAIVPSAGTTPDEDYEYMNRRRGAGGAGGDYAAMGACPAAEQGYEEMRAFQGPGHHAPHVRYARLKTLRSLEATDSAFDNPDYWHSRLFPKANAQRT

Molecule | Schwann cells (SC) (ErbB3) Avg EC50 [1] | CM % Agonism AVG [2] | Cardiomyocyte (CM) (ErbB4) Avg EC50 [2] | Selectivity SC/CM [2]
huNRG1(S177-S228)(wt)((G4E)2:G4)::huFcSEFL2 (Pb) (Fc fusion) | 0.0222 nM | 92.6% | 0.084 nM | 0.264
huNRG1(S177-F229)(wt)::3x(G4Q)::huFcSEFL2 (Pb) (Fc fusion) | 0.1 nM | – | 0.34 nM | 0.3
huNRG1(S177-S228)(wt)::3x(G4Q)::huFcSEFL2 (Pb) (from UniProt P0DOX5 300-449) (Fc fusion) | 0.07 nM | – | 2.6 nM | 0.03
huNRG1(S177-F229) huIgG1z SELF2 Fc (Fc fusion) | 0.14 nM | 91.4% | 0.31 nM | 0.452
huNRG1(S177-Q237)(wt)::3x(G4Q)::huFcSEFL2 (Pb) (from UniProt P0DOX5 223-449) (Fc fusion) | 0.07 nM | – | 0.21 nM | 0.3
B1 | > 10000 nM | 72% | 1.84 nM | > 5500
B2 | > 10000 nM | 83% | 0.303 nM and 0.33 nM | > 10000
B3 | > 10000 nM | 82% | 0.476 nM and 0.41 nM | > 10000
B4 | > 10000 nM | 68% | 14.1 nM | 710
B5 | > 10000 nM | 66% | 7.54 nM | 1320
B6 | > 10000 nM | 76% | 1.48 nM | > 6700
B7 | 1010 nM | 30% | 25.6 nM | 39
B8 | > 10000 nM | 74% | 2.29 nM | > 4370
B9 | > 10000 nM | 67% | 22.9 nM | 437
B10 | > 10000 nM | 90% | 0.65 nM | > 10000
B11 | > 10000 nM | 88% | 0.286 nM | > 10000
B12 | 546 nM | 27% | 1.04 nM | 526
B13 | 751 nM | 26% | 1.73 nM | 435
B14 | > 10000 nM | 84% | 0.218 nM | > 10000
B15 | > 10000 nM | 83% | 0.995 nM | > 10000
B16 | – | 91.6% | 3.4 nM | > 10000
B17 | – | 87.1% | 2 nM | > 10000
B18 | – | 94% | 2.9 nM | > 10000
B19 | – | 91.9% | 1.9 nM | > 10000
B20 | – | 62.7% | 6.4 nM | > 10000
B21 | – | 72.3% | 4.3 nM | > 10000
B22 | – | – | 0.924 nM and 0.576 nM | –
B23 | – | 85.4% | 0.3 nM | > 10000
B24 | – | 88.7% | 0.23 nM | > 10000
